Experiment: soluble on expression in E. coli; label from the status in PepcDB or PDB records

Row | Sequence | soluble on expression in E. coli
1 | MGSDKIHHHHHHAPRTPPATDAWSGFRQLFELDPHYAHFANFLITSHPRPVREAIASLRAQLDQHPARCVEWDTQSEWKHEAEVREWAGRYLEVKPRQIALTGSTTEGLGMIYGGLRLNPQQEILTTEHEHYSTRNILAYRSQRDGTQVRKLRLFDDPAKVSDDQVLSTIAAAIKPQTRVLGMTWVHSGSGVKLPVGQIGALVHEANRNRDENDRILYVIDGVHGFGVEDMRFADLQCDYFIAGTHKWMFGPRGTGIICAASTELKHLTPTFATFSENEDFATTMTPGGYHAFEHRWALGKAFELHLQHGKAAIQARIHGLNDYLKERLAQHRAIELVTPRSPNHSAGFTFFRVKGQDVEAIAAHLNSQRIVVDAVDRDVGPVVRTAPGLLNTEAEIDRLVDVLGQRLRA | not soluble
2 | MGSDKIHHHHHHMNAERQPSCCKVRLLLCDKSYPSHQSPIYTPTPPPWPLLALPGGVIMRTYLSSVAAIMSRSPDPAPRSSAPGRRASSSTRPPLARIGEVAYLKVVAVNTTGAFLDWGQPKDVLLPFAEQRFRPEVGKRVLVMLYEDAQGRPVASMRLDRFLADEATDLKAGDQVALVVAERTDLGFKAVVDHRYWGLLYADDIVHPPRRGQRLTGYIKRVREDGRLDLAMLPPGEAGLDVVGDKVLALLRCHGGFVALGDKTPAAEIKARVGVSKSAFKQAVGRLYKKRLITIEAEGIRLTREAIDDASSD | not soluble
3 | MHSPDPFTDHPDSDDSFEKFVPTPNVNRRRSDAIIVSDEGSFDGITGYSQVTVIENCPNTTVLEDENKRANPDDTITRMLESSDEEDETENNSDNDALADLLKSFRTEDQKRKEVDIEQAANISIDIFGDLIEEVDSEHEAAEYPDREGGNSMDKQGTMLPVEVPIQNNIKLIPRKRRLEPKSYDCEPSTSAAHGPVGVVSSDSGEYWNQQKTITIHGQNFEINNFNDYMRMKITKLNHQVNHGYAKPLENVSRIMEGFSVFVNGYTDPPALVIRDLMISHGGEYHCYYQHGITSYTIASSIATAKINRIRENEIFIKADWITESIAAGKPLDYRDFLIYEKGSVEKGQMQQFLTISTRNTGGNNETTSSNQFSDARNPNFIRDYYARSRLHLISTLAQDMKDFVANLKLEGKLTEKCFEEKELIDMKSLSNEISRESTVFHVDLDCFFVSVAVRNRIDLKHKEVAITHSKGTISNSMSEVASCSYAARDCGVKNGMLVRDALQKCPQLTLLPYQFEDYVQVSRKIYEILASYTLEVRAVSCDEMYINMSSFCEKYEINDPTILAEHIRKVIREKTQCPASVGIGSTSLLARLATRHAKPDGVFWVNAHKKNEFISEEKVKDLPGFGYEMMNRLTSFFGDITKCRELQLKTERELVPVFGPKLASKILRQCRGIEEDPDDFWATHVRKSVSCDINYGIRFTKRGEVIQLMTAIGAELERKLIDSKLTAGSITLKLMVRSANAPIQTSKFMGHGICDTFTKTCNLNVPTTRGESLTSEAMKLYAKVSPKVEDLRGVGVTCGKLKSKLKKDAATAVQEMFGKTSRVGNMARTDEQLNIIPRNEDELDKEPVIIPAVTEDLEVQSIPRQINFRVANDIDIPEIVKSTLLNGRSDNNLELEDLEDDGLVENRLAELECIIQNEPTKESVTNLQEMLSTLLNYGKLSAFETVFRKFEEISMDSSRCDTAWFSVFHLMVPFIEEESKDLLEFPIATTRNLGAMIASNTDNTSISSPEPFVPKEVFVIDSTKHT | not soluble
4 | MGSDKIHHHHHHMTAFSFLGDKYHDHDLFLETLKYALNCEINDLRPEDFPEIRKLPDLVVIGRWNLLDDETPWLKEGDIKILVDYVRSGGKLFVWHSGLARFPESYNGLVGGRFIHHPPQKKVRYYGKDIEFELVDEHYFVDLYSDVEIFLWSESDDGTSIAGWRRRYHNGKILALTPAHSEGLKDQVFRDFLKKVLNTFVNQTSW | not soluble
5 | MAHHHHHHMSSSAVPAYEGKQKVYALLNGTFHAAIVLEVAEDATEGGFLYYVRYVEQDSRLDQWLQASDIKERHQGRTHHGSSCTHQQYTPSGIKTRRQSHVTEQQNAETAVLTGEGVGMPTEVSANAKGGGAAPHLVKVSKTRARRDSAFFSRTKNIYSICMGPHEVETWYFSPYHLARPEVQQRLQAASQCVTGSTELQLVQSTTSPGGTSGVSTGIADVGGGAGGTGNVSVGAGGSGRGSGAGMRQWPIATRSFSLHICPYCLRPFLDNAAVVRHLQQDCLRHPPGNEIYRDPVRRLVVLELDGSLEPTFCEHLALLSKLFLEHKALDHDMTPFLFYVLCSVETHGLQVLGYFSKEKQTPEPYNLSCILVLPQYQSRGIGRFLIELSYELSRREGKVGTPEKPLSDLGEKLYLSYWADSVTMAIARAMEEGHCVSVDYLVQATAMIQADVIRALQHQKLLNGHQLTISEDIVERCYTKRLTKERDITSYTFYTHLLSWAPGFYEEFRGVPPAPTFVPWRDPSAPHSRTGG | not soluble
6 | MNNSINHKFHHISRAEYQELLAVSRGDAVADYIIDNVSILDLINGGEISGPIVIKGRYIAGVGAEYTDAPALQRIDARGATAVPGFIDAHLHIESSMMTPVTFETATLPRGLTTVICDPHEIVNVMGEAGFAWFARCAEQARQNQYLQVSSCVPALEGCDVNGASFTLEQMLAWRDHPQVTGLAEMMDYPGVISGQNALLDKLDAFRHLTLDGHCPGLGGKELNAYITAGIENCHESYQLEEGRRKLQLGMSLMIREGSAARNLNALAPLINEFNSPQCMLCTDDRNPWEIAHEGHIDALIRRLIEQHNVPLHVAYRVASWSTARHFGLNHLGLLAPGKQADIVLLSDARKVTVQQVLVKGEPIDAQTLQAEESARLAQSAPPYGNTIARQPVSASDFALQFTPGKRYRVIDVIHNELITHSHSSVYSENGFDRDDVSFIAVLERYGQRLAPACGLLGGFGLNEGALAATVSHDSHNIVVIGRSAEEMALAVNQVIQDGGGLCVVRNGQVQSHLPLPIAGLMSTDTAQSLAEQIDALKAAARECGPLPDEPFIQMAFLSLPVIPALKLTSQGLFDGEKFAFTTLEVTELEHHHHHH | soluble
7 | YNPIDNIQNATNRRNTVLANMVDDEKLSQADADSAAGVDMASRLVDTYQGTGDDYRYPSYFDAVIEEATKTYGLSEDEIVKNGY | not soluble
8 | MAHHHHHHMLRPTRVSRLVRSGSVALTPSCWTTKPAGWYLVPSSTLPATEELRVGKCFDFLNHSAQYLFLGQVMALAEEVKCIPWLEWFYSELHFSLPPTKEAELLANYMNDQERLRCGLRNHSEGGTSSSDIAWSRELKERVQRRAEEDFCWLLTHDQRKTEKFLQETFIQWHHRADYLVTRKSREKREFREDLTLQKVIQQGQERKRRMQRRRNRDEARQEAIKSGKESEWDNFTHDVLPRELREALDRESDGMEDVRLSRAGTATGGWSRSMRSHPNFR | soluble
9 | MSNSITVRARGVNGQESVSLQVGGTTVQTWTLTTAMQDYTASTSLTGEIRVAFTNDATGRDVQVDYIVVNGQTRQAENQSVNTGVWANNQCGGSGNSEWLHCNGYISFGNVS | soluble
10 | MVRVGMRAAPRVSLEALKAALGGLKLSEAKVYLITDWQDKRDQARYALLLHTGKKDLLVPDAFGPAFPGGEEALSELVGLLLAQGARRFYEAVVSPGEMTALLDLPPEELLKRVMAIANPTDPGIYLKRAA | soluble
11 | MDWGMQSRLSWIFNPKTGKTVMLAFDHGYFQGPTIGLERIDINIAPLFEHADVLMCTRGILRSVVPPATNKPVVLRASGANSILAELSNEAVALSMDDAVRLNSCAVAAQVYIGSEYEHQSIKNIIQLVDAGMKVGMPTMAVTGVGKDMVRDQRYFSLATRIAAEMGAQIIKTYYVEKGFERIVAGCPVPIVIAGGKKLPERETLEMCWQAIDQGASGVDMGRNIFQSDHPVAMMKAVQAVVHHNETADRAYELYLSEKQ | not soluble
12 | MSEATTTLDGWYCLHDLRSIDWAAWKTLSSDERGQAVSEFLNVVEKWNEVATAKKGSHAMYTVVGQKADIMLMILRPTMEELNEIETELNKTTLAEYMVPAYSYVSVVELSNYLPADEDPYQNPQILARLYPELPKANHICFYPMDKRRQGDDNWYMLPMEERKKMMYSHSKIGRQYAGKVRQVISGSVGFDDFEWGVTLFADDVLQFKKLIYEMRFDEVSARYGEFGTFFVGNILPDEKVEKFLHI | not soluble
13 | MWEYLIHGEPTPRLKPFLEGVGKALEAQGFRHNPESEAPNLVLNAITPENPRPYRRRAQATFVASVLELPEFPQDPLRELYPYLVRALSNVLLAYVPGQGVKFLTLELGHYGEPEGKGFYERVAARLRPIACSRLVINNIFEPDLEPELWQGDELTESMYRAGKKLKEWDLLPAPFPIEEILPPEDLRHVKRLYGIGGLSYGNLSVRKDEKRFWMSASGVDKANLREIGRDILMVKDYDPERNAILLSVPPHVEPRRVSVDAIEHWMIYREHPEVGAILHVHAWMEGVPATAFNYPCGTYELAQAVADKVREAPDPARAVVGLKNHGLTITGRSLDEILERIEGKLIRTVPMA | soluble
14 | MEYHLRTKLNGNIAMTSCFHENSFLQCDRSLYKFIWVRHGALDVEVDHVVMHLEKEEMISLTPLHHVQIRGVDGEYLTFLFNSNFYCIYGHDSEVSCNGFLFNGSSRVMRLKLSPSQSARLDSIVDIFRGECGIQDNLQEEMLRIILKRFIITCTRIAREKFDVDPGRENMFDVIRQFYVLVDSHFKEKKQVQDYADMLCRSPKTISNLFSLYGLSSPLRVIHERVDAEAKRLLLYTGKSAKEISEILGFEDLATFSRFFKKMNKESLSEYRKREKRE | not soluble
15 | DSGYSRETRALLFRAYRHDPTFAYLFNAEREGYEQRVLATIRQLVKQHFLQNQPALGLFLEDRLVGVALIAPPLRRLGVTESWAWRLRMVMDTGLGCTQRYLAYYNAVLACLPSETVHVLPLIGLDPEFQGQKMGQDLSEQLLAALHDWCAVDENSQGIVVDTGNPRYLEFYKRQGYEEIGEIAVGPV | not soluble
16 | DAAPAAGSTLDKIAKNGVIVVGHRESSVPFSYYDNQQKVVGYSQDYSNAIVEAVKKKLNKPDLQVKLIPITSQNRIPLLQNGTFDFECGSTTNNVERQKQAAFSDTIFVVGTRLLTKKGGDIKDFADLKGKAVVVTSGTTSEVLLNKLNEEQKMNMRIISAKDHGDSFRTLESGRAVAFMMDDALLAGERAKAKKPDNWDIVGKPQSQEAYGCMLRKDDPQFKKLMDDTIAQVQTSGEAEKWFDKWFKNPIPPKNLNMNFELSDEMKALFKEPNDKALNLEHHHHHH | soluble
17 | MTIKTPTVKVPGLGTDPLEQRIKEKEKKWKYKIAVLSGKGGVGKSTVAVNLTAALAKMGYFVGILDADIHGPNVAKMLGVDKEEVYAEKFDDGHFEMIPPTTDFMGQVTPIKVMSMGMMVPEDQPVIWRGPLVTKAIKQLLGDVKWGSLDFMIIDFPPGTGDEILTVVQSIKLDAAIIVTTPQEVALLDTGKAVNMMKKMEVPYVAVVENMSYLICPHCGNKIDIFGEGGGEKLAQKEGVDFLGKIPIDLKAREASDLGIPIVLYEDTPAAKAFMELAEKLVNKLKEIKGDGGKELEHHHHHH | soluble
18 | MVSAPPTLQDQAFRSLVRNEVLTVSDAECLIREFFPPLFKEASTQKKPKTIMILVEHWPYPCLHVGLLIDKPNFQIFQAILDGVDTWLKRKYRPRMGRLKKVDFRDAQHHASLDMQDEREGRDYLVGTLPKKQIVEDHSRTRKERLKLFHDLSFMSSLHEDKHQTLLLEWAKERTSFLHLCCEKLEIGAVEVSKVRNVLKFLQPELIKELKLNTVGNLSKLAKFVPFIRKMRNLQKLMLVRTFGTRTFTQEEKQNISKIISLFCKLSCLRHLTIDDVYFLTDQMKELLRCLEAPLVSLKITLCQLSQSDLESFAQRWNYSQLKHLCLRGVTLTNLDVTPLRDFLKRVAANLQTLDLEDCRMDDSHFRTLLPALIKCTQLTSINLYDNDISEDVLENFLHRTTNLSQLTTEMYPAPSEVYNESNYVIVEIFIQICSELMNKLMEVRQANSVCFGSSSCYDCDNRYLYEDDGDVTLCLCQE | not soluble

— the DeepSol protein solubility set
